In general, Kd refers to a measure of binding affinity in units of concentration.

The experiment has as its target T1, kindlin-2 (recombinant, full length, amino acids 1–680) (mouse, UniProt Q8CIB5 1-680).
T1 sequence (looked up): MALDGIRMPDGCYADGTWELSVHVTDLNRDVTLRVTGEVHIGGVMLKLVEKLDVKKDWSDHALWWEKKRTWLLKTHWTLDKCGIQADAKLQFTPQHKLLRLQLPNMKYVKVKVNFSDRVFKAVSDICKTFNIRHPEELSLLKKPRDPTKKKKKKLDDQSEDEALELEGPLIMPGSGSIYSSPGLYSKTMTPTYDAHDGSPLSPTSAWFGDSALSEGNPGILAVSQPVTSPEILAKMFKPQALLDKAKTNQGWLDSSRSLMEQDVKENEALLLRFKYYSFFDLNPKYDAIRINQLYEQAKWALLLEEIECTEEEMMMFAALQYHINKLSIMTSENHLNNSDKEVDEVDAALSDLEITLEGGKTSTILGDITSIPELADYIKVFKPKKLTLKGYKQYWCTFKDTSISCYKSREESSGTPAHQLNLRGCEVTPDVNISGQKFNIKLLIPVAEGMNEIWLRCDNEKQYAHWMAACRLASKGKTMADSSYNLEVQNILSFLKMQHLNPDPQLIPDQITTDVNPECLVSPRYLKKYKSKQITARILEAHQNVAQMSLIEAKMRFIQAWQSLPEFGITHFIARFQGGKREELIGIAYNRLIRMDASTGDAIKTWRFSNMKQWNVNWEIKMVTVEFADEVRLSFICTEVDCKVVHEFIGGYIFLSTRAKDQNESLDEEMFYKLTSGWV
Kind of experiment: ITC. A general note: ITC needs no label: the signal is the heat of the interaction.

B1: paxillin (recombinant, full length, amino acids 1–557) (natural protein)
chain: not shown
modifications: Atto520 label (NHS ester) in the ultracentrifugation of Fig. 1 B only
Take B1: the equilibrium dissociation constant (Kd) stood at 205 ± 59 nM.

The values above are taken from PMC5674885 (The Journal of Cell Biology, 2017).
